Substitutions are numbered along the chain they refer to. Names may count otherwise. Values belong to the binder of their own block, whether it stands above or below them.
Columns and labels:
[1] = molecular target: T1, PD-L1-streptavidin (UniProt Q9NZQ7 19-238); experiment: BLI (BLItz)
[2] = molecular target: T1, PD-L1-streptavidin; experiment: BLI (BLItz); remark: listed apart in the source
[3] = molecular target: T1, PD-L1-streptavidin; experiment: BLI (BLItz); Fig. 12

T1 sequence (Q9NZQ7 19-238): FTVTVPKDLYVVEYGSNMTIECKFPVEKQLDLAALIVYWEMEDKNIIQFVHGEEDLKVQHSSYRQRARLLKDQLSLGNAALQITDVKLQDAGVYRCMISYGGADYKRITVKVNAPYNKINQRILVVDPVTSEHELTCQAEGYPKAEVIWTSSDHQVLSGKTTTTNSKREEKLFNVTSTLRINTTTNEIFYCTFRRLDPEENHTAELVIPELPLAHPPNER

Kd [1]: 46.9 nM
B1: Q18 (protein)
chain: LDSPDRPWNPPTISPALLVVTEGDQATFTCGLPQTSESFVLNWYRIGPSQQMDKLAAFPEDRSQPGQDTRFRVTQLPNGRDFHMSVVRARRQDSGTYLCVAISLAPKVQIKESLRAELRVTERRAEVRTAHPSPSPRSAGQFQ

Kd [1]: 35.1 nM
B2: Q33 (protein)
chain: B1 chain with G31S, L32F, P33S, Q34R, G47S, M52T, R88G, R90Q, R128P, S138P

Kd [1]: 50.1 nM
B3: Q10 (protein)
chain: B1 chain with G31S, P33S, G47S, V87D, T96S, R128P, S138P

Kd [2]: 0.899 nM
B4: glycosylated PD-1 variant JY_Q12-2 (Q34N) (receptor)
chain: LDSPDRPLDPPTISPALLVVTEGDQATFTCSFSNTSKSFVLNWYRISPSQQTDKLAAFPEDRSQPGQDTRFRVTQLPNGRDFHMSVVRARRQDSGTYLCVAISLAPKVQIKESLRAELRVTERRAEVPTAHPSPSPRPACQFQ
modifications: sugar chain at N34 (N-linked glycosylation site restored, expressed in Expi293F)

Kd [2]: 3.24 nM
B5: glycosylated PD-1 variant JY_Q12-3 (Q50N) (receptor)
chain: B4 chain with N34Q, Q50N
modifications: sugar chain at N50 (N-linked glycosylation site restored, expressed in Expi293F)

Kd [2]: 17.3 nM
B6: JY-Q12-4 (protein)
chain: B4 chain with N34Q, Q92N

Kd [2]: 11 nM
Kd [1]: 5.49 nM
Kd [3]: 5.49 nM
B7: aglycosylated PD-1 variant Q12 (JY_Q12), soluble His-tagged protein (receptor)
chain: B4 chain with N34Q

Kd [2]: 7.38 nM
B8: glycosylated PD-1 variant JY_Q12-1 (Q25N) (receptor)
chain: B4 chain with Q25N, N34Q
modifications: sugar chain at N25 (N-linked glycosylation site restored, expressed in Expi293F)

From patent publication US20230183318A1 (published 2023)
